Results taken from US20100260668A1 (published 2010).

Biological target: T1, DLL4 ECD His tag (UniProt Q9NR61 27-529, limits assumed)
T1 construct: extracellular domain; also called DLL ECD His tag
Assay: SPR (Biacore), DVD-Ig captured, DLL4 as analyte

| Binder | Kd [nM] | koff [s⁻¹] | kon [M⁻¹ s⁻¹] |
| --- | --- | --- | --- |
| DVD490 (bispecific antibody, human IgG1, kappa, HC linker short, LC linker short; also called DVD-Ig DVD490) heavy: not shown light: DIQMTQSPSSLSASVGDRVTITCRASQDVSTAVAWYQQKPGKAPKLLIYSASFLYSGVPSRFSGSGSGTDFTLTISSLQPEDFATYYCQQSYTTPPTFGQGTKVEIKRTVAAPDIQMTQSSSYLSVSLGGRVTITCKASDHINNWLAWYQQKPGNAPRLLISGATSLETGVPSRFSGSGSGKDYTLSITSLQTEDVATYYCQQYWSIPLTFGAGTKLELKRTVAAPSVFIFPPSDEQLKSGTASVVCLLNNFYPREAKVQWKVDNALQSGNSQESVTEQDSKDSTYSLSSTLTLSKADYEKHKVYACEVTHQGLSSPVTKSFNRGEC | 0.528 | 7.7e-05 | 146000 |
| DVD496 (bispecific antibody, human IgG1, kappa, HC linker long, LC linker long; also called DVD-Ig DVD496) heavy: not shown light: DIQMTQSPSSLSASVGDRVTITCRASQDVSTAVAWYQQKPGKAPKLLIYSASFLYSGVPSRFSGSGSGTDFTLTISSLQPEDFATYYCQQSYTTPPTFGQGTKVEIKRTVAAPSVFIFPPDIQMTQSSSYLSVSLGGRVTITCKASDHINNWLAWYQQKPGNAPRLLISGATSLETGVPSRFSGSGSGKDYTLSITSLQTEDVATYYCQQYWSIPLTFGAGTKLELKRTVAAPSVFIFPPSDEQLKSGTASVVCLLNNFYPREAKVQWKVDNALQSGNSQESVTEQDSKDSTYSLSSTLTLSKADYEKHKVYACEVTHQGLSSPVTKSFNRGEC | 1.44 | 0.000172 | 120000 |

More lines, now with the values ahead:

| Kd [nM] | koff [s⁻¹] | kon [M⁻¹ s⁻¹] | Binder |
| --- | --- | --- | --- |
| 5.55 | 0.000629 | 113000 | DVD526 (bispecific antibody, human IgG1, lambda, HC linker long, LC linker short; also called DVD-Ig DVD526) heavy: not shown light: DIQMTQSPSSLSASVGDRVTITCRASQDVSTAVAWYQQKPGKAPKLLIYSASFLYSGVPSRFSGSGSGTDFTLTISSLQPEDFATYYCQQSYTTPPTFGQGTKVEIKRTVAAPQAVVTQESALTTSPGETVTLTCRSSTGAVTTSNYANWVQEKPDHLFTGLIGGTNNRAPGVPARFSGSLIGDKAALTITGAQTEDEAIYFCALWYSNHWVFGGGTKLTVLGQPKAAPSVTLFPPSSEELQANKATLVCLISDFYPGAVTVAWKADSSPVKAGVETTTPSKQSNNKYAASSYLSLTPEQWKSHRSYSCQVTHEGSTVEKTVAPTECS |
| 6.85 | 0.00081 | 118000 | DVD532 (bispecific antibody, human IgG1, kappa, lambda, HC linker short, LC linker long; also called DVD-Ig DVD532) heavy: not shown light: DIQMTQSPSSLSASVGDRVTITCRASQDVSTAVAWYQQKPGKAPKLLIYSASFLYSGVPSRFSGSGSGTDFTLTISSLQPEDFATYYCQQSYTTPPTFGQGTKVEIKRTVAAPSVFIFPPQAVVTQESALTTSPGETVTLTCRSSTGAVTTSNYANWVQEKPDHLFTGLIGGTNNRAPGVPARFSGSLIGDKAALTITGAQTEDEAIYFCALWYSNHWVFGGGTKLTVLGQPKAAPSVTLFPPSSEELQANKATLVCLISDFYPGAVTVAWKADSSPVKAGVETTTPSKQSNNKYAASSYLSLTPEQWKSHRSYSCQVTHEGSTVEKTVAPTECS |
| 0.807 | 7.43e-05 | 92100 | DVD502 (bispecific antibody, human IgG1, kappa, HC linker long, LC linker short; also called DVD-Ig DVD502) heavy: not shown light: DIQMTQSPSSLSASVGDRVTITCRASQDVSTAVAWYQQKPGKAPKLLIYSASFLYSGVPSRFSGSGSGTDFTLTISSLQPEDFATYYCQQSYTTPPTFGQGTKVEIKRTVAAPDIQMTQSSSYLSVSLGGRVTITCKASDHINNWLAWYQQKPGNAPRLLISGATSLETGVPSRFSGSGSGKDYTLSITSLQTEDVATYYCQQYWSIPLTFGAGTKLELKRTVAAPSVFIFPPSDEQLKSGTASVVCLLNNFYPREAKVQWKVDNALQSGNSQESVTEQDSKDSTYSLSSTLTLSKADYEKHKVYACEVTHQGLSSPVTKSFNRGEC |
| 1.7 | 0.000167 | 98400 | DVD508 (bispecific antibody, human IgG1, kappa, HC linker short, LC linker long; also called DVD-Ig DVD508) heavy: not shown light: DIQMTQSPSSLSASVGDRVTITCRASQDVSTAVAWYQQKPGKAPKLLIYSASFLYSGVPSRFSGSGSGTDFTLTISSLQPEDFATYYCQQSYTTPPTFGQGTKVEIKRTVAAPSVFIFPPDIQMTQSSSYLSVSLGGRVTITCKASDHINNWLAWYQQKPGNAPRLLISGATSLETGVPSRFSGSGSGKDYTLSITSLQTEDVATYYCQQYWSIPLTFGAGTKLELKRTVAAPSVFIFPPSDEQLKSGTASVVCLLNNFYPREAKVQWKVDNALQSGNSQESVTEQDSKDSTYSLSSTLTLSKADYEKHKVYACEVTHQGLSSPVTKSFNRGEC |

Biological target: T2, VEGF (UniProt P15692-4 27-191)
T2 construct: Bought reagent; also called vascular endothelial growth factor
Assay: SPR (Biacore), DVD-Ig captured, VEGF in solution

T2 sequence (P15692 other isoform, or with tags, fused parts or gaps limits assumed): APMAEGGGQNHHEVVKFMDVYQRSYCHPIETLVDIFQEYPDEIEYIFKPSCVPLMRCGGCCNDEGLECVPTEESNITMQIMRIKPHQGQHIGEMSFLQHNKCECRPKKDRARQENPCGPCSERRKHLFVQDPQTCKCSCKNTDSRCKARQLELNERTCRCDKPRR

| Binder | Kd [nM] | koff [s⁻¹] | kon [M⁻¹ s⁻¹] |
| --- | --- | --- | --- |
| DVD480 (bispecific antibody, human IgG1, kappa, DVD-Ig; N-term; VD AB071 (VEGF), C-term; VD AB015 (DLL4); HC linker long, LC linker short; also called DVD480H; DVD480L) heavy: not shown light: DIQMTQSPSSLSASVGDRVTITCRASQVIRRSLAWYQQKPGKAPKLLIYAASNLASGVPSRFSGSGSGTDFTLTISSLQPEDFATYYCQQSNTSPLTFGQGTKVEIKRTVAAPDIQMTQSPSSLSASVGDRVTITCRASQDVSTAVAWYQQKPGKAPKLLIYSASFLYSGVPSRFSGSGSGTDFTLTISSLQPEDFATTYYCQQSYTGTVTFGQGTKVEIKRTVAAPSVFIFPPSDEQLKSGTASVVCLLNNFYPREAKVQWKVDNALQSGNSQESVTEQDSKDSTYSLSSTLTLSKADYEKHKVYACEVTHQGLSSPVTKSFNRGEC | 0.302 | 4.91e-05 | 162000 |
| DVD446 (bispecific antibody, human IgG1, kappa, DVD-Ig; N-term; VD AB071 (VEGF), C-term; VD AB069 (DLL4); HC linker short, LC linker short; also called DVD446H; DVD446L) heavy: not shown light: DIQMTQSPSSLSASVGDRVTITCRASQVIRRSLAWYQQKPGKAPKLLIYAASNLASGVPSRFSGSGSGTDFTLTISSLQPEDFATYYCQQSNTSPLTFGQGTKVEIKRTVAAPDIVMTQSPDSLAVSLGERATISCRASESVDNYGISFMKWFQQKPGQPPKLLIYAASNQGSGVPDRFSGSGSGTDFTLTISSLQAEDVAVYYCQQSKEVPWTFGGGTKVEIKRTVAAPSVFIFPPSDEQLKSGTASVVCLLNNFYPREAKVQWKVDNALQSGNSQESVTEQDSKDSTYSLSSTLTLSKADYEKHKVYACEVTHQGLSSPVTKSFNRGEC | 0.000297 | 3.62e-08 | 122000 |
| DVD458 (bispecific antibody, human IgG1, kappa, L234A L235A, DVD-Ig; N-term; VD AB071 (VEGF), C-term; VD AB069 (DLL4); HC linker long, LC linker short; also called DVD458H; DVD458L) heavy: not shown light: DIQMTQSPSSLSASVGDRVTITCRASQVIRRSLAWYQQKPGKAPKLLIYAASNLASGVPSRFSGSGSGTDFTLTISSLQPEDFATYYCQQSNTSPLTFGQGTKVEIKRTVAAPDIVMTQSPDSLAVSLGERATISCRASESVDNYGISFMKWFQQKPGQPPKLLIYAASNQGSGVPDRFSGSGSGTDFTLTISSLQAEDVAVYYCQQSKEVPWTFGGGTKVEIKRTVAAPSVFIFPPSDEQLKSGTASVVCLLNNFYPREAKVQWKVDNALQSGNSQESVTEQDSKDSTYSLSSTLTLSKADYEKHKVYACEVTHQGLSSPVTKSFNRGEC | 0.000281 | 3.39e-08 | 121000 |
| DVD474 (bispecific antibody, human IgG1, kappa, DVD-Ig; N-term; VD AB071 (VEGF), C-term; VD AB015 (DLL4); HC linker long, LC linker long; also called DVD474H; DVD474L) heavy: not shown light: DIQMTQSPSSLSASVGDRVTITCRASQVIRRSLAWYQQKPGKAPKLLIYAASNLASGVPSRFSGSGSGTDFTLTISSLQPEDFATYYCQQSNTSPLTFGQGTKVEIKRTVAAPSVFIFPPDIQMTQSPSSLSASVGDRVTITCRASQDVSTAVAWYQQKPGKAPKLLIYSASFLYSGVPSRFSGSGSGTDFTLTISSLQPEDFATTYYCQQSYTGTVTFGQGTKVEIKRTVAAPSVFIFPPSDEQLKSGTASVVCLLNNFYPREAKVQWKVDNALQSGNSQESVTEQDSKDSTYSLSSTLTLSKADYEKHKVYACEVTHQGLSSPVTKSFNRGEC | 0.00144 | – | – |
| DVD486 (bispecific antibody, human IgG1, kappa, DVD-Ig; N-term; VD AB071 (VEGF), C-term; VD AB015 (DLL4); HC linker short, LC linker long; also called DVD486H; DVD486L) heavy: not shown light: DIQMTQSPSSLSASVGDRVTITCRASQVIRRSLAWYQQKPGKAPKLLIYAASNLASGVPSRFSGSGSGTDFTLTISSLQPEDFATYYCQQSNTSPLTFGQGTKVEIKRTVAAPSVFIFPPDIQMTQSPSSLSASVGDRVTITCRASQDVSTAVAWYQQKPGKAPKLLIYSASFLYSGVPSRFSGSGSGTDFTLTISSLQPEDFATTYYCQQSYTGTVTFGQGTKVEIKRTVAAPSVFIFPPSDEQLKSGTASVVCLLNNFYPREAKVQWKVDNALQSGNSQESVTEQDSKDSTYSLSSTLTLSKADYEKHKVYACEVTHQGLSSPVTKSFNRGEC | 0.371 | – | – |
| DVD452 (bispecific antibody, human IgG1, kappa, L234A L235A, DVD-Ig; N-term; VD AB071 (VEGF), C-term; VD AB069 (DLL4); HC linker long, LC linker long; also called DVD452H; DVD452L) heavy: not shown light: DIQMTQSPSSLSASVGDRVTITCRASQVIRRSLAWYQQKPGKAPKLLIYAASNLASGVPSRFSGSGSGTDFTLTISSLQPEDFATYYCQQSNTSPLTFGQGTKVEIKRTVAAPSVFIFPPDIVMTQSPDSLAVSLGERATISCRASESVDNYGISFMKWFQQKPGQPPKLLIYAASNQGSGVPDRFSGSGSGTDFTLTISSLQAEDVAVYYCQQSKEVPWTFGGGTKVEIKRTVAAPSVFIFPPSDEQLKSGTASVVCLLNNFYPREAKVQWKVDNALQSGNSQESVTEQDSKDSTYSLSSTLTLSKADYEKHKVYACEVTHQGLSSPVTKSFNRGEC | 0.000155 | 1.61e-08 | 104000 |
| DVD464 (bispecific antibody, human IgG1, kappa, DVD-Ig; N-term; VD AB071 (VEGF), C-term; VD AB069 (DLL4); HC linker short, LC linker long; also called DVD464H; DVD464L) heavy: not shown light: DIQMTQSPSSLSASVGDRVTITCRASQVIRRSLAWYQQKPGKAPKLLIYAASNLASGVPSRFSGSGSGTDFTLTISSLQPEDFATYYCQQSNTSPLTFGQGTKVEIKRTVAAPSVFIFPPDIVMTQSPDSLAVSLGERATISCRASESVDNYGISFMKWFQQKPGQPPKLLIYAASNQGSGVPDRFSGSGSGTDFTLTISSLQAEDVAVYYCQQSKEVPWTFGGGTKVEIKRTVAAPSVFIFPPSDEQLKSGTASVVCLLNNFYPREAKVQWKVDNALQSGNSQESVTEQDSKDSTYSLSSTLTLSKADYEKHKVYACEVTHQGLSSPVTKSFNRGEC | 0.00077 | 7.22e-08 | 93700 |

The remaining lines, values ahead:

| Kd [nM] | koff [s⁻¹] | kon [M⁻¹ s⁻¹] | Binder |
| --- | --- | --- | --- |
| 0.45 | 0.00022 | 489000 | DVD522 (bispecific antibody, human IgG1, kappa, lambda, L234A L235A, DVD-Ig; N-term; VD AB071 (VEGF), C-term; VD AB073 (DLL4); HC linker long, LC linker long; also called DVD522H; DVD522L) heavy: not shown light: DIQMTQSPSSLSASVGDRVTITCRASQVIRRSLAWYQQKPGKAPKLLIYAASNLASGVPSRFSGSGSGTDFTLTISSLQPEDFATYYCQQSNTSPLTFGQGTKVEIKRTVAAPSVFIFPPQAVVTQESALTTSPGETVTLTCRSSTGAVTTSNYANWVQEKPDHLFTGLIGGTNNRAPGVPARFSGSLIGDKAALTITGAQTEDEAIYFCALWYSNHWVFGGGTKLTVLGQPKAAPSVTLFPPSSEELQANKATLVCLISDFYPGAVTVAWKADSSPVKAGVETTTPSKQSNNKYAASSYLSLTPEQWKSHRSYSCQVTHEGSTVEKTVAPTECS |
| 0.781 | 0.00028 | 358000 | DVD516 (bispecific antibody, human IgG1, lambda, DVD-Ig; N-term; VD AB071 (VEGF), C-term; VD AB073 (DLL4); HC linker short, LC linker short; also called DVD516H; DVD516L) heavy: not shown light: DIQMTQSPSSLSASVGDRVTITCRASQVIRRSLAWYQQKPGKAPKLLIYAASNLASGVPSRFSGSGSGTDFTLTISSLQPEDFATYYCQQSNTSPLTFGQGTKVEIKRTVAAPQAVVTQESALTTSPGETVTLTCRSSTGAVTTSNYANWVQEKPDHLFTGLIGGTNNRAPGVPARFSGSLIGDKAALTITGAQTEDEAIYFCALWYSNHWVFGGGTKLTVLGQPKAAPSVTLFPPSSEELQANKATLVCLISDFYPGAVTVAWKADSSPVKAGVETTTPSKQSNNKYAASSYLSLTPEQWKSHRSYSCQVTHEGSTVEKTVAPTECS |
